Measured values from US20210079089A1 (SURROZEN OPERATING, published 2021).

T1: LRP6E3E4_O75581_631-1246 (Homo sapiens (Human), UniProt O75581 631-1246, biotinylated in the BLI/SPR assays (C-terminal biotin acceptor peptide))
T1 construct: The entry holds residues 631-1246 of UniProt O75581 followed by a biotin acceptor peptide and eight His; For crystals the complex was treated with carboxypeptidase A and B
T1 sequence: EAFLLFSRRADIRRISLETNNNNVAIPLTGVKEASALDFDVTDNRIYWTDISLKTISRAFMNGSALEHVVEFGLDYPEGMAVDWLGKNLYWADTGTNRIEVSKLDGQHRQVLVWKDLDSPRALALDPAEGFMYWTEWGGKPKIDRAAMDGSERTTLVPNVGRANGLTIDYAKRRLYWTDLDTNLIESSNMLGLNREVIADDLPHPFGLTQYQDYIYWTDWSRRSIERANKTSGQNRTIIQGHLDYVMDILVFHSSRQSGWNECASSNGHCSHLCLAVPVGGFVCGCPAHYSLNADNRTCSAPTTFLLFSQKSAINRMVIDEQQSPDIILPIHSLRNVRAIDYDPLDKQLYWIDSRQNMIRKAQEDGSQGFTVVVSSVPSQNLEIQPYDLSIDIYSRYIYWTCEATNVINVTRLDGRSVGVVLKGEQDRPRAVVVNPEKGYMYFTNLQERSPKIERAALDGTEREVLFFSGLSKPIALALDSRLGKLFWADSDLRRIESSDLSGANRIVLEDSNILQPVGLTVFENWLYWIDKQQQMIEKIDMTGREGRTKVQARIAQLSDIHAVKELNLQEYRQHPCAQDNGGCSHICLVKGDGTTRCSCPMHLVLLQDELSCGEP

T2: LRP6e1e2 (UniProt O75581 20-630, limits assumed, C-terminally biotinylated)
T2 construct: domain: E1E2; also called LRP6 E1E2 domains
T2 sequence (looked up): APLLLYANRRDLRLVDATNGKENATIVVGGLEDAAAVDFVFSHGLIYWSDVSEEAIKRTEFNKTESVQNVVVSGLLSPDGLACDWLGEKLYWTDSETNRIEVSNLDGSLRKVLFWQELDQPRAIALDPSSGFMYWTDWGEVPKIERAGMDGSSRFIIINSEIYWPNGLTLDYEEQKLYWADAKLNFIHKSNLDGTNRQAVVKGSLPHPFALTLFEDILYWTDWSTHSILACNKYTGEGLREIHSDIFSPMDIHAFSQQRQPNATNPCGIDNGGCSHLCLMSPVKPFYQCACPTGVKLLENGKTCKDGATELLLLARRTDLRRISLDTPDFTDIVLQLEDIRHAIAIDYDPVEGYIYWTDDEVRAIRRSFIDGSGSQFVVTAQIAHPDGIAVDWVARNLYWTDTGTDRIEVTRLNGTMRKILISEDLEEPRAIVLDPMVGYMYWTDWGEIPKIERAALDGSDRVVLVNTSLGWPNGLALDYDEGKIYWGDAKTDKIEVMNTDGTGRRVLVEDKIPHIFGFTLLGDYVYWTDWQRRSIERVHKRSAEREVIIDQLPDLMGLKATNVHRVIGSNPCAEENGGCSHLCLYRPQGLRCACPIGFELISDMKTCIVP

T3: biotinylated-LRP6 CRD (UniProt O75581 631-1246, limits assumed, biotinylated)
T3 construct: LRP6 has no CRD
T3 sequence (looked up): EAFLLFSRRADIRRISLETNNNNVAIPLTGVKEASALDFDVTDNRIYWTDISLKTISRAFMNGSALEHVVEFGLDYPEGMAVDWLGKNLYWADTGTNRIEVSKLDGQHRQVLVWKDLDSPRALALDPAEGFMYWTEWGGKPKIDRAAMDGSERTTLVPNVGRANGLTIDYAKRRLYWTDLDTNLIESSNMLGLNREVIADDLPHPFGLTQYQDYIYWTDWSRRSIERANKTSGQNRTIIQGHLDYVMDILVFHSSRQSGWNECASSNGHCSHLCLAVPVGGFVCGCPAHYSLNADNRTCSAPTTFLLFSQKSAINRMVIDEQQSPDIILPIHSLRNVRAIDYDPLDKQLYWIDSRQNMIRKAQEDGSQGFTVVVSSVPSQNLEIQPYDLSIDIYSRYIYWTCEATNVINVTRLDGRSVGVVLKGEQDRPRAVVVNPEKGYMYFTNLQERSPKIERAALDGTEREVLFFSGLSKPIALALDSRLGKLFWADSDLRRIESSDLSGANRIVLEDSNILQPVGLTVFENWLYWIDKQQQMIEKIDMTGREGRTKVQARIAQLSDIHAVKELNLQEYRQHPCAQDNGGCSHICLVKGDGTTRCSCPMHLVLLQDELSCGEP


What was measured:
[1] = molecular target: T1, LRP6E3E4_O75581_631-1246; assay: Octet BLI or BIAcore SPR
[2] = molecular target: T1, LRP6E3E4_O75581_631-1246; assay: Octet BLI, affinity class
Method: (§1) Binding kinetics of antibody fragments to LRP5 extracellular domain (LRP5 ECD) and/or LRP6 extracellular domain (LRP6 ECD) protein targets was determined by bio-layer interferometry (BLI) using Octet Red 96 (PALL ForteBio, Fremont, Calif.) instruments at 30° C., 1000 rpm with streptavidin (SA) biosensors. C-terminal biotinylated LRP ECD recombinant protein was diluted to 20 nM in the running buffer (PBS, 0.05% Tween-20, 0.5% BSA, pH 7.2) and captured to the SA biosensor until coupling length reached 0.2 nm. Following capture of the LRP5 or LRP6, the SA biosensor with captured biotinylated-LRP5 or biotinylated LRP6 was dipped into wells containing the relevant antibody fragment at […] (0, 1.37, 4.12, 12.4, 37, 111.1, 333.3, 1000 nM) in running buffer, plus a well with only running buffer as a reference channel. KD was determined by global fitting, 1:1 binding model according to manufacturer recommended settings.

[3] = molecular target: T2, LRP6e1e2; assay: Octet BLI or BIAcore SPR
[4] = molecular target: T2, LRP6e1e2; assay: Octet BLI, affinity class
Method: as §1

[5] = molecular target: T3, biotinylated-LRP6 CRD; assay: Octet BLI, biotinylated LRP6
Method: as §1
One antibody fragment, 009S-E04, was selected for alanine-scanning mutagenesis of CDRs, and the respective LRP6 binding affinities of the various mutants were determined by Octet BLI as described in Example 1.

[6] = molecular target: T2, LRP6e1e2; assay: Octet BLI
Method: as §1

Binder | Kd [1] [nM] | Kd [5] [nM] | further results
009S-F04 (VHH) VHH: AVQLVESGGGVVQAGDSLTLSCTMSGRSLSSFAMGWFRRAPGKEREFVARISRGDGYTDEADSVKGRFTISRDNAKNTVYLQMNNVGPEDTAVYHCAAVQAVIGGTLTTAYDYWGQGTLVTVSS | > 500 | – | Kd [2]: > 500 nM
001S-F11 (VHH) VHH: QVQLVESGGGLVQAGGSLRLSCAASGRTFSSYAMSWFRQAPGKEREFVAVIGRSGGIKYYADSVKGRFTISRDNTINTVYLQMNNLTPEDTAIYYCATRRPFNSYNTEQSYDSWGRGTLVTVSS | – | – | Kd [3]: < 500 nM
009S-A05 (VHH) VHH: AVQLVDSGGGLVQAGDSLTLSCAASGRTFSDYSMGWFRQAPGKEREFVAGISWIADNRYYADVVKGRFTISRDNAKNTVYLQMNSLKPEDTAVYYCTAGRSRYLYGSSLNGPYDYWGQGTQVTVSS | > 500 | – | Kd [2]: > 500 nM
013S-A05 (VHH) VHH: EVQLVESGGGLVQAGGSLRLSCATSGRTFNTYAMGWFRQAPGKEREFVASVSWRYDRTYYTDTVKGRFTISRDNAKNTVYLQMNSLKPEDTAVYFCAADTNWRAGPRVGIDEYAYWGQGTLVTVSS | > 500 | – | –
013S-H04 (HC SEQ ID NO 20) (VHH) VHH: AVQLVDSGGGLVQAGGSLRLSCAVSGRTFSMYDMGWFRQAPGKEREFVASIRWSSGNTWYADSMKGRFTISRDNAKNTVYLQMNSLKPEDTAVYYCYANIYYTRRAPEEYWGQGTLVTVSS | < 500 | – | –
009S-A03 (VHH) VHH: QVQLVESGGGLVQAGDSLRLSCVVSGRTFSVYGVGWFRQAPGKEREVVAAVSASGGYTWYADSVKGRFTISRDNAKSTAFLQMNSLQPEDTAVYYCKAAPRWGGATAYWGQGTQVTVSS | – | – | Kd [3]: < 500 nM; Kd [4]: < 500 nM; Kd [2]: > 500 nM
009S-H03 (VHH) VHH: DVQLVESGGGLVQAGESLRLSCAASGSIFSINTMGWYRQAPGKERELVAVITSGGKTVYADSVKGRFTITEDAAKNTVYLQMNSLKAEDTAVYYCYADSRSSWYDEYLEHWGQGTLVTVSS | – | – | Kd [3]: < 500 nM; Kd [4]: < 500 nM; Kd [2]: < 500 nM
009S-E04 K1A (VHH) VHH: DVQLVESGGGLVQAGGSLRLACAGSGRIFAIYDIAWYRHPPGNQRELVAMIRPVVTEIDYADSVKGRFTISRNNAMKTVYLQMNNLKPEDTAVYYCNAARPWGSRDEYWGQGTQVTVSS | – | < 100 | –
009S-E04 R2A (VHH) VHH: DVQLVESGGGLVQAGGSLRLACAGSGRIFAIYDIAWYRHPPGNQRELVAMIRPVVTEIDYADSVKGRFTISRNNAMKTVYLQMNNLKPEDTAVYYCNAKAPWGSRDEYWGQGTQVTVSS | – | < 100 | –
009S-E04 P3A (VHH) VHH: DVQLVESGGGLVQAGGSLRLACAGSGRIFAIYDIAWYRHPPGNQRELVAMIRPVVTEIDYADSVKGRFTISRNNAMKTVYLQMNNLKPEDTAVYYCNAKRAWGSRDEYWGQGTQVTVSS | – | < 100 | –
009S-E04 D8A (VHH) VHH: DVQLVESGGGLVQAGGSLRLACAGSGRIFAIYDIAWYRHPPGNQRELVAMIRPVVTEIDYADSVKGRFTISRNNAMKTVYLQMNNLKPEDTAVYYCNAKRPWGSRAEYWGQGTQVTVSS | – | < 100 | –
009S-E04 Y10A (VHH) VHH: DVQLVESGGGLVQAGGSLRLACAGSGRIFAIYDIAWYRHPPGNQRELVAMIRPVVTEIDYADSVKGRFTISRNNAMKTVYLQMNNLKPEDTAVYYCNAKRPWGSRDEAWGQGTQVTVSS | – | < 100 | –
009S-E04 R7A (VHH) VHH: DVQLVESGGGLVQAGGSLRLACAGSGRIFAIYDIAWYRHPPGNQRELVAMIRPVVTEIDYADSVKGRFTISRNNAMKTVYLQMNNLKPEDTAVYYCNAKRPWGSADEYWGQGTQVTVSS | – | < 100 | –
009S-E04 W4A (VHH) VHH: DVQLVESGGGLVQAGGSLRLACAGSGRIFAIYDIAWYRHPPGNQRELVAMIRPVVTEIDYADSVKGRFTISRNNAMKTVYLQMNNLKPEDTAVYYCNAKRPAGSRDEYWGQGTQVTVSS | – | < 100 | –
009S-E04 S6A (VHH) VHH: DVQLVESGGGLVQAGGSLRLACAGSGRIFAIYDIAWYRHPPGNQRELVAMIRPVVTEIDYADSVKGRFTISRNNAMKTVYLQMNNLKPEDTAVYYCNAKRPWGARDEYWGQGTQVTVSS | – | < 100 | –
009S-E04 G5A (VHH) VHH: DVQLVESGGGLVQAGGSLRLACAGSGRIFAIYDIAWYRHPPGNQRELVAMIRPVVTEIDYADSVKGRFTISRNNAMKTVYLQMNNLKPEDTAVYYCNAKRPWASRDEYWGQGTQVTVSS | – | < 100 | –
009S-E04 E9A (VHH) VHH: DVQLVESGGGLVQAGGSLRLACAGSGRIFAIYDIAWYRHPPGNQRELVAMIRPVVTEIDYADSVKGRFTISRNNAMKTVYLQMNNLKPEDTAVYYCNAKRPWGSRDAYWGQGTQVTVSS | – | < 100 | –
013S-D05 (HC SEQ ID NO 23) (VHH) VHH: QVKLEESGGGLVQAGGSLRLSCAASGRIFSIYDMGWFRQAPGKEREFVSGIRWSGGTSYADSVKGRFTISKDNAKNTIYLQMNNLKAEDTAVYYCGSRGYWGQGTLVTVSS | < 500 | – | –
013S-C05 (HC SEQ ID NO 22) (VHH) VHH: EVQLVESGGGLVQPGGSLRLSCAVSRNIFPIDDMSWYRQAPGKQRELVATVTSGGRINYADSVKGRFTISRDGARRTIDLQMNNLKPEDTAVYYCNVDRTLYGKYKEYWGQGTLVTVSS | < 500 | – | –
013S-G04 (HC SEQ ID NO 15) (VHH) VHH: AVQLVESGGGLVQAGGSLRLACAGSGRIFAIYDIAWYRQAPGNQRELVATIRPVVSETTYADAVKGRFTISRSNAMKTVYLQMNSLKSEDTAIYYCNAKRPWGTRDEYWGQGTLVTVSS | < 500 | – | binding result [6]: no binding; Kd [2]: < 500 nM
013S-G04 (HC SEQ ID NO 19) (VHH) VHH: AVQLVESGGGLVQAGGSLRLACAGSGRIFAIYDIAWYRQAPGNQRELVATIRPVVSETTYADAVKGRFTISRSNAMKTVYLQMNSLKSEDTAIYYCNAKRPWGTRDEYWGQGTLVTVSS | < 500 | – | –
